# Like-named read-outs stand apart in the source and are kept apart here. Where no end group is shown, it is not given here. [ ]: non-standard residue; d: D form. biotin (long spacer arm) = biotin with long spacer arm, attached via N-hydroxysuccinimidyl ester of biotin; Nle = CCCC[C@H](N)C(=O)O
# T1: APC-55 (Homo sapiens, UniProt P25054)
# T1 construct: APC-55, a peptide corresponding to amino acids 2-55 of human APC; made in house; host or cells: E. coli BL21 (DE3), pAED4 plasmid
# T1 sequence (P25054 2-55): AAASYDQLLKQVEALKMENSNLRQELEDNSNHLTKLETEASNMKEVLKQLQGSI
# T2: N-terminal APC coiled coil (APC-55) (Homo sapiens, UniProt P25054)
# T2 construct: APC-55, a peptide corresponding to amino acids 2-55 of human APC; made in house; host or cells: E. coli BL21 (DE3), pAED4 plasmid
# T2 sequence (P25054 2-55): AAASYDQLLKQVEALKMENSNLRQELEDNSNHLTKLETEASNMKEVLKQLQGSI
# T3: APC-55, a peptide corresponding to amino acids 2-55 of human APC (human)
# T3 peptide: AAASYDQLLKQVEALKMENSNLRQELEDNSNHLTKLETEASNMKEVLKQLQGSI
# T4: coumarin-labeled APC-55 (human, coumarin label (site not stated))
# T4 peptide: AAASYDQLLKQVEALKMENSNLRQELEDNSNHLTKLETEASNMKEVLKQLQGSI
# B1: anti-APCp1 polypeptide probe (designed binder)
# peptide: MAAKGDQLKKEVEALEYENSNLRKKLEDHKKKLTKLKTEISNAKKMLKQLYASI
# B2: fluorescein-labeled anti-APCp1 (designed binder)
# peptide: MAAKGDQLKKEVEALEYENSNLRKKLEDHKKKLTKLKTEISNAKKMLKQLYASI
# modifications: also: fluorescein label (site not given here)
# B3: anti-APCp2 polypeptide probe (designed binder)
# peptide: [Nle]AAKGDQLKKEVEALEYENSNLRKKLEDHKKKLTKLKTEISNAKK[Nle]LKQLYASI
# B4: biotinylated anti-APCp1 (contains Met instead of Nrl, an additional Leu8Val mutation and Glu-Asp-Glu at the peptide C-terminus) (designed binder)
# peptide: {biotin (long spacer arm)}-MAAKGDQVKKEVEALEYENSNLRKKLEDHKKKLTKLKTEISNAKKMLKQLYASIEDE
# B5: APC-55, a peptide corresponding to amino acids 2-55 of human APC (protein)
# chain: AAASYDQLLKQVEALKMENSNLRQELEDNSNHLTKLETEASNMKEVLKQLQGSI
# Experiments:
# [1] = target: T1, APC-55; experiment: Fluorescence energy transfer titration (dissociation constant of heterodimer); assay type: binding
# Description: Based on the sensitivity of the fluorescence method used, the dissociation constant of the APC-55/Anti-APCp2 heterodimer was estimated to be less than 10 nM. […] Because the amino-terminal, coiled coil sequence targeted by anti-APCp1 occurs in tumor-associated truncation mutants, the distinct electrophoretic mobilities of the species detected by the antisense peptide distinguish wild-type from tumorigenic APC variants (FIG. 9).
# [2] = target: T2, N-terminal APC coiled coil (APC-55); experiment: Thermal denaturation followed by circular dichroism at 222 nm (apparent Tm); assay type: physicochemical; settings: for Apparent Tm: 10 mM phosphate pH 7.0 and 100 mM potassium flouride, midpoint of CD thermal denaturation at 222 nm
# Description: Circular dischroism investigations are well known in the art. For example, such an investigation may be performed using a 1 cm or 1 mm cuvette (Helma or Uvonic) on an Aviv CD spectrophotometer (model 60DS or model 62DS) equipped with a thermoelectric controller. The buffer used for all CD experiments except pH titrations is 100 mM KF, 10 mM potassium phosphate (pH 7.0). All peptide concentrations may be determined by tyrosine absorbance at 275.5 nm in 6.0 M GuHCl PH 6.5 (Schwarz/Mann Biotech Ultra-Pure grade) using an Aviv UV/VIS spectrophotometer (model 1 BDS or 14 DS). The molar ellipticity at 222 nm, 5° C., is measured for the homo- and heterodimers. The CD values (i.e., deg cm^2 and dmol^-1) indicate % helicity of the peptides. Thermal melting curves are determined by monitoring the CD signal at 222 nm as a function of temperature. The pH dependence of stability may be measured in 100 mM KF, 10 mM potassium phosphate at various pH values. GuHCl (Schwarz/Mann Biotech Ultra-Pure grade) (e.g., 2M) may be included in the buffer used for monitoring the pH dependence of stability. pH stability is indicated if the same overall shape of the pH dependence curve is obtained in the absence as well as the presence of GuHCl. It is also desirable to determine the reversibility for all thermal melts. The absence of reversibility of a melting curve above a certain pH value indicates chemical modification and/or degradation of the polypeptide. Such modification and/or degradation may be confirmed using HPLC.
# Thermal denaturation is used to determine Tm. The term "Tm " refers to the temperature at which the fraction of a polypeptide which is unfolded is equal to the fraction folded (ΔG=0). The Tm is determined by curve fitting a thermal denaturation curve (described supra) to an equation known in the art (see, O'Shea et al (1992) Cell 68:699-708) using a nonlinear least squares-fitting program (e.g., Kaledagraph, Synergy Software). Alternatively, the Tm for each polypeptide may also be determined by taking the first derivative of the CD signal (β) with respect to temperature^-1 (temperature in K) and finding the minimum of this function (Cantor and Schimmel, 1980). Similarly, denaturation induced by additives such as urea or GuHCl can be followed by circular dichroism. These measurements can yield the Cm, i.e., the denaturant concentration where ΔG=0. Linear extrapolation of the transition to zero denaturant can yield the equilibrium constant in aqueous buffer. This can be converted to a free energy of association using the formula ΔG=--RTlnK [Cantor and Schimmel (1980) supra).
# CD spectra (180-300 nm) for the APC-55 and anti-APCp1 peptides alone and in combination were recorded in a 1 mm quartz cuvette at 5° C. using an Aviv 62DS circular dichroism spectrophotometer. The concentrations of peptide stocks were determined optically by the method of Gill and vonHippel, Anal. Biochem 182:319-326 (1989). Peptide stocks were diluted in 10 mM KPO4, 100 mM KF, pH 7.0. Thermal denaturations were carried out in steps of 1-3° C. with 2 minutes for equilibration and one minute for data averaging. Thermal transitions were >95% reversible. The results in FIGS. 3 and 4 obtained with the APC-55 alone are shown by open circles (.largecircle.), with the anti-APCp1 alone by squares (.quadrature.), and with an equimolar mixture of APC-55 and anti-APCp1 with closed circles (.circle-solid.).
# [3] = target: T3, APC-55, a peptide corresponding to …; experiment: thermal denaturation followed by circular dichroism at 222 nm
# Description: (§1) CD spectra (180–300 nm) for the APC-55 and anti-APCp1 peptides alone and in combination were recorded in a 1 mm quartz cuvette at 5° C. using an Aviv 62DS circular dichroism spectrophotometer. The concentrations of peptide stocks were determined optically by the method of Gill and vonHippel, *Anal. Biochem* 182:319–326 (1989). Peptide stocks were diluted in 10 mM KPO_4, 100 mM KF, pH 7.0. Thermal denaturations were carried out in steps of 1–3° C. with 2 minutes for equilibration and one minute for data averaging. Thermal transitions were >95% reversible. The results in FIGS. 3 and 4 obtained with the APC-55 alone are shown by open circles (○), with the anti-APCp1 alone by squares (□), and with an equimolar mixture of APC-55 and anti-APCp1 with closed circles (●).
# [4] = target: T3, APC-55, a peptide corresponding to …; experiment: thermal stability at 20 µM peptide in PBS (pH 7.0), mixture
# [5] = thermal denaturation by CD at 222 nm, peptide alone (homo-oligomer), 8.0 µM
# [6] = thermal denaturation by CD at 222 nm, peptide alone (homo-oligomer), 20.0 µM
# [7] = target: T3, APC-55, a peptide corresponding to …; experiment: thermal denaturation by CD at 222 nm, equimolar mixture, 20.0 µM
# Description: as §1
# [8] = thermal denaturation by CD at 222 nm, peptide alone (homo-oligomer), 75.0 µM
# [9] = thermal stability at 20 µM peptide in PBS (pH 7.0), peptide alone
# [10] = target: T3, APC-55, a peptide corresponding to …; experiment: thermal denaturation by CD at 222 nm, equimolar mixture, 75.0 µM
# Description: as §1
# [11] = target: T3, APC-55, a peptide corresponding to …; experiment: native acrylamide gel electrophoresis, judged by the sensitivity of detection
# Description: Native acrylamide gel electrophoresis was used as a direct test of heterodimer specificity. Samples of the individual peptides and an equimolar mixture of the peptides were prepared at 0.6 mM and diluted two-fold in 0.2% (w/v) methyl green, 20% glycerol, 750 mM beta-alanine acetate pH 6.0. Gels contained a separating gel of 7.5% acrylamide in 375 mM beta-alanine acetate, pH 4.0. Samples were run for 2.5 hours at 100 volts, and the gels were fixed with 2% glutaraldehyde and stained for at least 1 hour in 0.2% Coomassie Brilliant Blue in 50% methanol, 10% acetic acid (v/v). Destaining was carried out overnight in the same solvent lacking the dye.
# The data presented herein was surprising in view of the prior art reports of the sufficiency of e':g interactions for dimerization specificity of coiled coil proteins [O'Shea et al. (1992), supra; O'Shea et al. (1993) supra; Krylov et al (1994) EMBO J. 13:2849–2861].
# [12] = target: T3, APC-55, a peptide corresponding to …; experiment: thermal denaturation by CD at 222 nm, equimolar mixture, 8.0 µM
# Description: as §1
# [13] = target: T4, coumarin-labeled APC-55; experiment: fluorescence energy transfer measurements
# [14] = target: T3, APC-55, a peptide corresponding to …; experiment: fluorescence energy transfer titration
# [15] = target: T3, APC-55, a peptide corresponding to …; experiment: thermal denaturation by CD, equimolar mixture, 75.0 µM
# [16] = target: T3, APC-55, a peptide corresponding to …; experiment: thermal denaturation by CD, equimolar mixture, 20.0 µM
# [17] = target: T3, APC-55, a peptide corresponding to …; experiment: thermal denaturation by CD, equimolar mixture, 8.0 µM
# [18] = target: GST-APC-H1 (GST fused to the first 55 amino acids of the human APC protein, heptad repeat 1) (human, UniProt P08515 = GST); experiment: Western blot of bacterial lysates, 5 nM biotinylated peptide, streptavidin-HRP
# Description: (§2) Bacterial lysates containing GST, GST-APC-H1, GST-APC-H1-4 and GST-APC-probe were diluted 1:10 in cell lysates from induced BL21 cells containing no APC sequences and adjusted to a final protein concentration of 0.5 mg/ml in sample buffer. Five micrograms of each sample was electrophoresed on a precast 10% Tricine-SDS polyacrylamide gel (Novex) as described by Schager and von-Jagow (1987). Proteins were transferred to 0.45 micron nitrocellulose for 2 hours at 100 V, 4° C., in transfer buffer (25 mM Tris, 192 mM glycine, 20% methanol, 0.1% SDS).
# (§3) The anti-APCp1 peptide was biotinylated by removing the F-moc protecting group from the N-terminus of the peptide on the synthesis resin and incubating the resin with the N-hydroxy-succinimidyl ester of biotin containing a long spacer arm (Pierce, Catalog #21336) in dimethylformamide. The biotinylated anti-APCp1 contains Met (instead of Nrl) as well as an additional Leu8Val mutation and Glu-Asp-Glu (wild-type APC sequence) at the peptide C-terminus. This probe was indistinguishable from anti-APCp1 in native gel experiments and CD experiments (data not shown). Blots were blocked for 1 hour in PNT buffer (10 mM phosphate, pH 8.0, 175 mM NaCl, 0.1% Tween-20) containing 0.5% bovine serum albumin. After blocking, blots were probed for I hour at 42° C. with 5 nM biotinylated antiAPC peptide in PNT buffer containing 1% BSA. […]
# [19] = target: GST-APC-H1-4 (GST fused to the N-terminal 373 amino acids of the APC protein, heptad repeats 1-4) (human, UniProt P08515 = GST); experiment: as above
# Description: as §2, §3
# [20] = thermal denaturation by CD, peptide alone, 8.0 µM
# [21] = thermal denaturation by CD, peptide alone, 75.0 µM
# [22] = thermal denaturation by CD, peptide alone, 20.0 µM
molecule,measurement,setting,value
MAAKGDQLKKEVEALEYENSNLRKKLEDHKKKLTKLKTEISNAKKMLKQLYASI [anti-APCp1],Kd,"[1]; fluorescein- and coumarin-labeled anti-APCp1 and APC-55, data not shown, read-out: Kd of the heterodimer (upper limit)",≤ 10 nM
[Nle]AAKGDQLKKEVEALEYENSNLRKKLEDHKKKLTKLKTEISNAKK[Nle]LKQLYASI [anti-APCp2],Kd,"[1]; estimated from the sensitivity of the fluorescence method, read-out: dissociation constant of the APC-55/Anti-APCp2 heterodimer",< 10 nM
APC-55: peptide corresponding to amino acids 2-55 of human APC; target coiled coil; MAAASYDQLLKQVEALKMENSNLRQELEDNSNHLTKLETEASNMKEVLKQLQGSI,Apparent Tm (+/- 1.25° C.),[2]; 8.0 μM peptide (Table 9),36.3 °C
same,Apparent Tm,[2]; 8.0 μM peptide,36.3 °C
same,Apparent Tm (+/- 1.25° C.),[2]; 20.0 μM peptide (Table 9),40.0 °C
same,Tm (thermal stability),[2]; 20 μM peptide concentration in PBS (pH 7.0),40.0 °C
same,Apparent Tm,[2]; 20.0 μM peptide,40.0 °C
same,Apparent Tm (+/- 1.25° C.),[2]; 75.0 μM peptide (Table 9),46.5 °C
same,Apparent Tm,[2]; 75.0 μM peptide,46.5 °C
B1,increase in the thermal melting transition,[3],> 10 ° C.
same,Tm,[4],54.3 ° C.
same,Apparent Tm,[5],45 ° C.
same,Apparent Tm,[6],52.3 ° C.
same,Apparent Tm,[7],54.3 ° C.
same,Apparent Tm,[8],59.6 ° C.
same,Tm,[9],52.3 ° C.
same,Apparent Tm,[10],64.7 ° C.
same,preference for heterodimer over homodimers (fold),[11],≥ 100 fold
same,Apparent Tm,[12],50.6 ° C.
B2,Kd,[13],≤ 10 nM
B3,Kd,[14],< 10 nM
same,Tm,[4],57.5 ° C.
same,Apparent Tm,[15],63.6 ° C.
same,Apparent Tm,[16],57.5 ° C.
same,Apparent Tm,[17],52.9 ° C.
B4,binding result,[18],binds
same,binding result,[19],binds
B5,Apparent Tm,[5],36.3 ° C.
same,Apparent Tm,[6],40 ° C.
same,Apparent Tm,[20],36.3 ° C.
same,Apparent Tm,[8],46.5 ° C.
same,Tm,[9],40 ° C.
same,Apparent Tm,[21],46.5 ° C.
same,Apparent Tm,[22],40 ° C.
